According to a protein production outcome set (Wang et al. 2014):

Assay: label from the status in PepcDB records

Q: With “MNPILNLIISFIALLWAANHLVAGSSGLAIRFQLSPLMIGLTIVALGTSAPELFISIISSLKDKNDLAIGNAIGSNIANIGLILGIIILIKPTSFHFNKLKKVYPILIIVMLFAYSLILDGYLGTIDGCLFLIGCIAVLCYFIYLASHSPKRDLSVNEFRPAILSYRSTPSNLLSIAIGLLILPICSKYLVYNASEIAKWAGISEFTIGLTIIAIGSSLPELTTALVAAIKGEDSIAIGTIIGSNIYNLLLILALPGLLNPTKISSVVLWRDMPVMLSITLLLLFLNYYYQKKTSSWPGGILLLVYFCYMASLIINAHS” as the sequence, how does the protein production read?
A: failed

Q: Which protein production does the source give for “MNPKVKGIIAILVSAIGFSFMSVFFRLAGDLPVFQKSLARNLVAMFIPLYFIYKYKQPLFGKLSSQPLLISRSTLGLIGVLLNIYAIDHMILSDADTLMKLNPFWTILLSLIFLNEKVRNYQIIAMVIAIFGMLFVVKPEFSSSMIPAIGGLFSGIFAASAYTCVRALSTREAPYTIVFYFSFFSIVVLIPFTIFTFEPMSMMQVIYLIGAGLAAAAGQIGITLAYSYAPAKDISIFTYASIIFTAFFGFILFGESPDFYAILGYVIIIASSYYMFEKARRQPLSIQKEEQKPKT” here?
A: failed

Q: With “MNPRLALALKLLEAGLVESAAIPVAQALERDPDDPRAHHLAGLIARRGGDGALALAAFTRGLAVAADDAPLRIERAGLLLDLGRAEEALADLAVALALAPDHQAVLSTQGRALIDLGRPGEALAPLRRARALAPDDVAPAHNLGRALLALDRPDEALPLLEAAVARAPGAIDPRADLAEALRRLDRPGDAAQLLRAVLADAPGRADLADALAGALLAAGAVDESVAVLRASLDKAPTHGAGWVNLAAALIETGALDEATAAADRALALDPDDADAKVNRAFARCLADDYEQGFADYAHRWRTAAFQRPYPPVTAPPWAGEPLGEGTLLVRGEQGLGDQIMAARFLPWLSKRPDRPRRIVFECHPCLHRLLAEGLEAGIDLLAMGRPPPPVAAWIGALDLARMAGVTAGVMPVDVPYLKARPPVPPLAPPLPPGGRGRLGLVWAGKTRPRDRSCPLEPLAGLCVDQGWTVHALQLGPRRADLAGLPAGLGVIDEGDRLGDMAATASVMAGLDLVVAVDTAVAHLAGALGLPCALLLLATPDWRWGQKASRTVWYPSLRLFRQPHPGDWDGAFDAVRRAFAQGWPLS” as the sequence, how does the protein production read?
A: failed

Q: For “MNQEKLLALMMDLHQDGARQGPGSETETLRALELTRIDPLAKLQVADIGCGTGASTLVLASKLQNAQITAIDIFPEFLDVLSTRAKVMGYSEKIETLTESMDKLSFADESLDLIWSEGAIYNLGFAQGIECWKPMLKTGGVLAVSEITWLNPLPPEEIRQHWNTEYPEIATASEKIAILEHGGYDLIGYFILPSTNWLDSYYTPVEERIHDFLKRHRGDLEAEELIKMERREMDLYSRFKNWFSYGFYVARKR”, which protein production is on record?
A: failed

Q: With “MNQHTLLPKKTERLQYFGSVSPIKGEKPVEKEKMKDLQNIRKDYFFDIQHVGVANVSHPVTITSAMMPAEQTTAANFTMTCNLPRNQKGINMSRLTELLQVYHQNGWILSFSSLQQFTKELAENMDTSSATVEVRFPWFFERKSPKLEKAGLMHADIFMSVTYRKDQPFKQRAGISAKVTTLCPCSKEISEYSAHNQRGTVKHLGRIFTRAASLPSDVKADLPHAAESNASARLHPVLKRPDEKAVTETAYENPRFVEDLARLIAADLFELEWVSAFEIECRNEESIHLHRCLCEVCFSKEVDKI” as the sequence, how does the protein production read?
A: failed

Q: Which protein production does the source give for “MNQLEFEQVSLYQIIVDSEKLAQEIYYQIEDEEISFYEAAYLYDVDAVRRQRCGYEGKVYRFSLPVNVATVIFRTSPKQLISPLQTEQGYHLFMVEEFIPAELEHHHHHH” here?
A: failed

Q: Which protein production does the source give for “MNQLTAYTLRLGDNCLVLSQRLGEWCGHAPELEIDLALANIGLDLLGQARNFLSYAAELAGEGDEDTLAFTRDERQFSNLLLVEQPNGNFADTIARQYFIDAWHVALFTRLMESRDPQLAAISAKAIKEARYHLRFSRGWLERLGNGTDVSGQKMQQAINKLWRFTAELFDADEIDIALSEEGIAVDPRTLRAAWEAEVFAGINEATLNVPQEQAYRTGGKKGLHTEHLGPMLAEMQYLQRVLPGQQW” here?
A: not failed

Q: For “MNQPSSLAADLRGAWHAQAQSHPLITLGLAASAAGVVLLLVAGIVNALTGENRVHVGYAVLGGTAGFAATALGALMALGLRAISARTQDAMLGFAAGMMLAASAFSLILPGLDAAGTIVGPGPAAAAVVALGLGLGVLLMLGLDYFTPHEHERTGHQGPEAARVNRVWLFVLTIILHNLPEGMAIGVSFATGDLRIGLPLTSAIAIQDVPEGLAVALALRAVGLPIGRAVLVAVASGLMEPLGALVGVGISSGFALAYPISMGLAAGAMIFVVSHEVIPETHRNGHETTATVGLMAGFALMMFLDTALG”, which protein production is on record?
A: failed

Q: Which protein production does the source give for “MNQSIIFTEQLTWDVQLSAIHFTAQQQGMVIDCYIGQKVLEHLAAEKINNSEQALSLFEQFRFDIEEQAEKLIEQEAFDVQGHIQVERVD” here?
A: not failed

Q: With “MNQVEMTEFPVGKPEEALYGVASTPDGALWFTLAKGNAIGRLSPDGEVSRFPLPHADGQPTTITCGPDGRPWFTLSSANAVGRLSPDGALRMFELPRPASRPFGIAAGHDGCLWFAEMAGDRIGRITIDGDIEEYDLPVKGGYPSCMAAGRDGLMWFTLNQAGAIGSISATAAPRIFPLGAADAAPVGIASDAQGALWIAQAGNGAIARFDAGGRITEFPLHSRAARPHALAADAAGNLWFTEWGANRIGRISEAGDTAGYELAAPGSEPHGIAIDPHGCVWAALETGSLVRLQASPRD” as the sequence, how does the protein production read?
A: failed

Q: Which protein production does the source give for “MNQYVKIEVQQGDTLWSIADQVADTKKINKNDFIEWVADKNQLQTSDIQPGDELVIPLKKKHQDAYELATLEHHHHHH” here?
A: failed

Q: Which protein production does the source give for “MNRDLSSFKRTMNTLAVSSDVAFFNITLRFWIRRNDETREQGKFKPHTDLPRLQSFYLDYYQKNVMDVIKIIGNQYTILKEIESSAHSAAIRAIHAALPPHKINGDSRKQADSYIQHACDTAGVLFRVLELLSEDVQLPSEFLEADADVKQLAEIFRPYNIIPLYICGKYSMKRLPEY” here?
A: failed

Q: For “MNREEVLKQLQSIFRDILKKDNVCIDESSTSKDVDGWDSLTHMQIIAQIEKHFGVRFNFREVIKFKNVGDLCSALLTKMELEHHHHHH”, which protein production is on record?
A: not failed

Q: Which protein production does the source give for “MNRISVVILNWNGCEMLRSFLPSVLRYSEAEGVEVCVADNGSTDQSVEMLRREFPSVRRILLDGNHGFADGYNLALRQVEAEYVVLLNSDVEVTGQWLQPMAAYLDAHPEVAACQPKIRSWRQKEWFEYAGAAGGFIDRYGYPFCRGRVMGVVEADRGQYDTVLPIFWATGAAMFIRLADYREAGGLDGRFFAHMEEIDLCWRLRARGRGIVCIPQSVVYHVGGATLKKENPHKTFLNFRNNLVMLYKNLPDRELAGVMRVRCWLDYIAAATFALKGQPANAKAVVRARREFKLLRDSFRDARAENLRKTSSHFIPERIKSSILVQFYVKGRKFFSQLSDLKG” here?
A: failed

Q: Which protein production does the source give for “MNRIWLRAIILTASSALLAGCQFGGLNSLPLPGTAGHGEGAYSVTVEMADVATLPQNSPVMVDDVTVGSVAGIVAVQRPDGSFYAAVKLDLDKNVLLPANAVAKVSQTSLLGSLHVELAPPTDRPPTGRLVDGSRITEANTDRFPTTEEVFSALGVVVNKGNVGALEEIIDETHQAVAGRQAQFVNLVPRLAELTAGLNRQVHDIIDALDGLNRVSAILARDKDNLGRALDTLPDAVRVLNQNRDHIVDAFAALKRLTMVTSHVLAETKVDFGEDLKDLYSIVKALNDDRKDFVTSLQLLLTFPFPNFGIKQAVRGDYLNVFTTFDLTLRRIGETFFTTAYFDPNMAHMDEILNPPDFLIGELANLSGQAADPFKIPPGTASGQ” here?
A: failed

Q: Which protein production does the source give for “MNRLKKWIRYVPDRIDDGLRYLCGRMSPDVRLVCVVVMLTGFGCLSIYMTVSSIYRIGRHEGEQLQMDHIRRMELYRGINKDSINIKNQVDYGEPKKSGTATGERCNA” here?
A: failed

Q: With “MNRVYVGTVSAVTDIGVFVNLNKRLRGLIHRRNLGNNRFSEDEEILVQVSGIGLSGEIDLKPVKMDGYKVVEISKEVGRVEIAELENLEHHHHHH” as the sequence, how does the protein production read?
A: failed

Q: With “MNSEFDVIDRYFTRPRRNALLGPGDDAALIACKPGMDWAISVDTLVAGRHFFPDVDPATLGHKVLAVNLSDMAAMGATPCWATLSLTLTETLAQDDIWLKAFSSGFFALADQYQVELIGGDTTGGPLNISVQIIGEVERGKALRRSGAQPGDDIWVSGHLGDAALALQSLQQHVTLTAQEAAPCLAALHTPMPRVALGKALVNVAHSAIDISDGLLADLGHILDRSGVAATIDFDHIPRSPALKNKLQPENTVTNTICQLAIDCLLAGGDDYELCFTVPESKRDAVIQLAQESGILLSRIGKIIPGKGLTVLGTDSNPLIFKNKGYDHFSAR” as the sequence, how does the protein production read?
A: failed

Q: With “MNSENHPATTFKSRIKSSLPYTLAVAIIGFVSLWVRMRPYDHVFLSNGFVKFTSNDPWYHIRTLNVLLENYPQRMFFNPMTNYPYGSYIHFGPLYDQMMAITSLILGLGSPSQDLINTVGAYFPAVLGALTVIPVYYIGKYLGGRKTGILAAVFIAFAPGQFLSRSLIGFTDHHVAESLFSTFFMMFFMLAIITAKKKNLRFEDLFNKNFIVVKEPLIYSIIAGVMYSAYQLSWPGASLFLFIALVYAVVQYILDNFNGESSDYLGFTGIITFLVSAILILPFIHPELGFSMYYYTWFHVATAIGTMAGFAALSLIQREFKNRNLKAYYYPLAIFLLGFLGLLAIRFASPSVYSLIISAPNTVFGVLTGGAATIGEVSSMFYYGGTFTLSRAFGNFTVSGFFASIIGLIILLVSVIRKAKPEEVLVLVWSILMLFAIYGQNRFAYYYSINVSILSAYIGGLLLEKVKWNELDEKFKSSVKSPADIPGFLKSFRAKQVLAVLAIAVFLIYPVYGAAMVQSTGSNDPDWAWIEACLWLKSSTPDPGMDYNAIYEAPEDGKLFDYPESAYGVMSWWDYGHYIETLGHRMPNANPFQAGIGGRRGSINETNVPGAAPFLTAQSEEEATEVLESIHPDPEKSGARYIMSDERMAVDIFMAMPEWTLDTEGYMQPYWTGDGYQYLPSKRYFDSMESRLHFLDGNGLKQYRLVYETWAYQTQEAGYKQVYNFLYGSSIPEVDSGYVKIFEYVKGAKITGTVSPNETVNINTTILTGQGRTFEYSQSTSSDSEGRYEFIVPYSTEGPIPGETQFDTAPTGAYVVSYGDTTTEVRVSEEAVLNGEEIKV” as the sequence, how does the protein production read?
A: failed

Q: Which protein production does the source give for “MNSEQADILDLLSGHTDDTTIERLAFECLLTNMTDDRVVSLMNILGWQGDFNCFAIGGVPSASLASTSLAIRKAVRDLGGEHVVIGTYGTFLLALACQMGAVTPEVTCTAVMPAFSEDEPLYLSPVRSGVAGASHALRETMFSLQAAPALSTPSRPLRADELLPERALLGDDYAREELYRNVYQVLRGENPDDPTYLTVSTFLKYGSSLENTAKELNVHPNTVRYRLKRAAETTGWDATDPRDAYVLTTALAIGRMRDR” here?
A: not failed

Q: Which protein production does the source give for “MNSFKEGEYVLIRFGEKKFLRKLLPKQSLSVKKSVLKFDEVIGKPEGVKINGFEVYRPTLEEIILLGFERKTQIIYPKDSFYIALKLNLNKEKRVLEFGTGSGALLAVLSEVAGEVWTFEAVEEFYKTAQKNLKKFNLGKNVKFFNVDFKDAEVPEGIFHAAFVDVREPWHYLEKVHKSLMEGAPVGFLLPTANQVIKLLESIENYFGNLEVVEILHRHYKTISERFRPEDQMVAHTAYLVFGRKLKT” here?
A: not failed

Q: Which protein production does the source give for “MNSGDNIIKKKSFTFAVRIVNLYKVLSSEIKEFVMSKQLLRSGTSVGANIREALNAQSKPGFIHKLAISQKECDETGYTNNVEFESMNTDAIELLKIVRSIIMTSKKNIIHNSLEHHHHHH” here?
A: failed

Q: With “MNSHCSHTFITDNRSPRARRGHAMSTLHKVKAYFGMAPMEDYDDEYYDDRAPSRGYARPRFDDDYGRYDGRDYDDARSDSRGDLRGEPADYPPPGYRGGYADEPRFRPREFDRAEMTRPRFGSWLRNSTRGALAMDPRRMAMMFEDGHPLSKITTLRPKDYSEARTIGERFRDGSPVIMDLVSMDNADAKRLVDFAAGLAFALRGSFDKVATKVFLLSPADVDVSPEERRRIAETGFYAYQ” as the sequence, how does the protein production read?
A: failed

Q: For “MNSILSSFKKNQKGIILILIASICTTIGQTLWKMSAMHNMLYILIGFFFYGIGAVGMIIALKYGSFSVIHPMMSMGYVFTIIVSYILLKESVGLGKIIGVILIMFGVAFIGLGDE”, which protein production is on record?
A: failed
